Assay results: PMC9270392, “An ancestral function of strigolactones as symbiotic rhizosphere signals” (Nature Communications, 2022)

Substrate: CC1=CC(O/C=C(C)\C=C\C2=C(C)CCCC2(C)C)OC1=O
Experiment: LC-MS/MS of BSB formed by yeast microsomes, Michaelis-Menten fit
Type: biochemical, Marchantia paleacea
Details: rac-CL 0.25 to 33 μM, NADPH 500 μM, 28 °C, 10 min, microsomes of WAT11 yeast, overall two-step conversion CL to BSB via CLA

B1: MpaMAX1 (Marchantia paleacea subsp. diptera) (protein)
chain: MITSMEGWTGVGALGSLVFMVVIMVYYFYPTWKVRHIPVPPYTWFLGHIPLLTKHQALCWTMLAKDYGPMYRFHVGRQPMVMVTDAELCRQVGLKLFKQVPNRSNPAMIEGSSVLKKALFFSRDEQWSGMKSILQPLFHSDKMNNYTPIMTQIVDELLERLRSVKEGEDVNISRLFQRLTLDVIGEVAFGIKFGLVLETPGPDEWLVQTTVKSIDALRMDAGAGVPLSTIVGTFFPILQKPFRSLLRMIPGTPEWVADGSDHALKLRLRQIQQEREELMRRNGSVSRVDSLSLLLNSSKLNKQNGKLLTQDYIGALTYELTLVGSETSSVTLSMLTYLLALHPECERKMLAEIDAFGPRDLPITTEDLETKFPYVDMVIKETMRKHTTTPVVAREASEDIELGGYHLPKGTWVWLVLEALQMNPKDFPEPEEFRPERFDENCDEAKTRHPYAFLPFGVGPRSCLGKRFAAQEVKLTVVRLYQNFTFTLSPLTKVPLETQFGIVVRPKHGVCVRVHPRWTRL
notes: cDNA in pYeDP60, expressed in yeast WAT11 (Saccharomyces cerevisiae); microsomal fraction
For B1, the Km was 4.78 ± 1.22 µM.
